Measured values as given in the supplement of paper PMC9170038.

Test system: MS2 coat protein
Experiment: apparent KD of MS2 coat protein; designed switch direction (-1 OFF switch, 1 ON switch): 1; higher = weaker reporter binding
In short: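 On Illumina chips, designed RNA switches with common flanks were made by stalled E. coli RNA polymerase. Titrations with SNAP-549-labelled MS2 coat protein, doubling from 0.7 or 1.5 nM to 3 µM, were done with no input, with 200 uM small-molecule ligand, or with an oligonucleotide input. Apparent KD is the median per design over clusters, from curve fits of normalised cluster fluorescence.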

[1] = input ligand: microRNA oligo, concentration not stated
[2] = Eterna round: R95, input ligand: FMN 200 uM
[3] = Eterna round: R95, input ligand: microRNA oligo, concentration not stated
[4] = Eterna round: R95, input ligand: none

Row | Sequence | apparent KD of MS2 coat protein (input ligand: FMN 200 uM) [nM] | apparent KD of MS2 coat protein [1] [nM] | apparent KD of MS2 coat protein (input ligand: none) [nM] | apparent KD of MS2 coat protein [2] [nM] | apparent KD of MS2 coat protein [3] [nM] | apparent KD of MS2 coat protein [4] [nM]
1 | GCUGCAUGGGCAGGAUAUGGGUCCAAAGCGCAAGUGCGCUUUGGUACAUGAGGAUCACCCAUGUCCCAGAAGGGCCCAAGCGGC [Inorgeesbi] (Eterna round: R96, puzzle: Same State NG 2) | 16.4 | 87.9 | 145 |  |  | 
2 | AUCCCAUCGGGAGGAUAUGGAACCUUAUUGGUUCUAGAAGGUCCAACAUGAGGAUCACCCAUGUGGGAGUGGUCUAAUGACCAC [SS NG10LRO01] (Eterna round: R96, puzzle: Same State NG 1) | 190 | 208 | 414 |  |  | 
3 | GUAGCAUACCGAGGAUAUUCAUACAUGAGGAUCACCCAUGUUUAGGCCAGCAUUAGCUGGCCUUGGGAGAAGGCGGAAUGCUAC [Xeonanis - 20 Mod54] (Eterna round: R96, puzzle: Same State NG 2) | 17.7 | 13.5 | 22.6 |  |  | 
4 | AUUAAUAAUCUAGGAUAUCACGUCGAAUAGACGUGAGAAGGAGAUCAUAACAUGAGGAUCACCCAUGUAUUACAUGAAGUUAAU [SSNG1/7-B1] (Eterna round: R96, puzzle: Same State NG 1) | 27.5 | 29.9 | 34.8 |  |  | 
5 | GAGAGAUGGCUAGGAUAUUCGGUGAUAAUGAUAGAAGAAGGAGCUGACAUGAGGAUCACCCAUGUGGGAAUAAUCCAGAGAGAG [Parity 19 - Jieux - Same State NG 1] (Eterna round: R96, puzzle: Same State NG 1) | 167 | 56.1 | 96.7 |  |  | 
6 | UUAUACUCGAGAGGAUAUGCAGAGGAUCACCCUGCAGAAGGCUCGUUAGAGAGGAUAUGCAGAGGAUCACCCUGCAGAAGGCUC [pwkr ssNG DX.24] (Eterna round: R96, puzzle: Same State NG 1) | 45.7 | 16.1 | 37.4 |  |  | 
7 | GGUGGGUUACUACCCACACAUGAGGAUCACCCAUGUAUUGGGAAGGAUAUGGUGCCUGUGUGGUACCAGAAGGUCCUGGAGGUG [SS-NG3-LRO20] (Eterna round: R96, puzzle: Same State NG 3) | 1350 | 237 | 1590 |  |  | 
8 | ACAUGAGGAUCACCCAUGUAACACCUGAAAAUAAAACGAACACAGGAUAUCCCGACAUGACGUUGGGAGAAGGGUGAUCGAAGA [Leenrien] (Eterna round: R96, puzzle: Same State NG 3) | 269 | 202 | 29.6 |  |  | 
9 | AGCGAGAUAGGCAAGGAUAUGCUGGGUUGCACAUGAGGAUCACCCAUGUCAUUGGUUAUGGCCGAGCAGAAGGUGCAUUCUCUUU [ak bound state near shape] (puzzle: Same State 2) |  |  |  | 19.5 | 75.6 | 66.5
10 | UGGCUCAGACGAGGAUAUAUGUGAUCACAUGAGGAUCACCCAUGUCUCGAGCUUCGGCUCGAGACAUAGAAGGCGUCUGAGCCA [SSNG2/3-A2] (Eterna round: R96, puzzle: Same State NG 2) | 118 | 66.3 | 18.5 |  |  | 
11 | AUCAAAGCGUGAGGAUAUAUGGGAACACGAGUCGUAGAAGGUACGUCAAUACAUGAGGAUCACCCAUGUAAAGAGGAGAACCUC [Eternabot solution 33] (Eterna round: R96, puzzle: Same State NG 1) | 60.1 | 32.9 | 45.2 |  |  | 
12 | UGAAUAGUUACAGGAUAUCAUGCGAAAAUUGCGUGAGAAGGGUGGGUGUUGUGCGCUAAGUGCCACAUGAGGAUCACCCAUGUU [SameState NG1 #38] (Eterna round: R96, puzzle: Same State NG 1) | 44.5 | 7.1 | 25.6 |  |  | 
13 | AGUCCAGCCUGAGCUGGACAGAAGCAUGUACAUGAGGAUCACCCAUGUCAUGUACAAGCUUUUUGCUCGUCUUAAUA [Zipper 49 - 3] (puzzle: Sensor for hsa-mir-208a) |  |  |  | 459 | 16.2 | 641
14 | ACAUGAGGAUCACCCAUGUAUAGAUUUGAAUGUUAAGUUACGUAGGAUAUCGUGUUUAGUAUGAUCGAGAAGGACGAUCUGAUA [JR_SSNG3_Sub066] (Eterna round: R96, puzzle: Same State NG 3) |  | 18.6 |  |  |  | 
15 | UAUAAACAUGAGGAUCACCCAUGUAAUAAUAUGGGAGGAUAUCAGAAUGUAUUUAUUUAAUGAGAAGGCCUAAUAU [Mat - Same State 1 - Mod of Eli - D68] (puzzle: Same State 1) |  |  |  | 46.4 | 532 | 645
16 | UGGUACAUGGGAGGAUAUCUCAUGGAGACAUGAGGAUCACCCAUGUAGAUCGACGGUAACGUCGGAGAGAAGGCCCAUGUACCU [MOD JL SSNG1 3.70] (Eterna round: R96, puzzle: Same State NG 2) | 17.4 | 32.6 | 50 |  |  | 
17 | GUAGCAUACCGAGGAUAUUCAUAUUAAAUACAUGAGGAUCACCCAUGUUAGGCCAAAAGGCCUUGGGAGAAGGCGGAAUGCUAC [Xeonanis - 20 Mod2] (Eterna round: R96, puzzle: Same State NG 2) | 20.9 | 33.6 | 63.5 |  |  | 
18 | GGAGAACAUGAGGAUCACCCAUGUGGAUGGGCGCUAGGAUAUGCGAGAGGGUGAAGAGAAGCAGAAGGAGUGGAUA [JR_SS1_Sub036] (Eterna round: R96, puzzle: Same State 1) | 130 | 96.6 | 147 |  |  | 
19 | CCGCGCUGUCGAGAGGAUAUGCGGUGAUGGACAUGAGGAUCACCCAUGUUAGCGAUAGCAUUACUGUAGAAGGCUCUACGGCGGC [JL-ss2-3.09 ViennaUCT mod] (Eterna round: R96, puzzle: Same State 2) | 11.2 | 10.2 | 16.3 |  |  | 
20 | GUACAGAUCACAGGAUAUCACGUCGAAUAGACGUGAGAAGGGUGAUCACACAUGAAUAUUAAUACAUGAGGAUCACCCAUGUAC [SSNG1/16-A1] (Eterna round: R96, puzzle: Same State NG 1) | 71 | 14.1 | 20.4 |  |  | 
21 | GAGUGGAGGAGAGGAUAUACAAUGAUAAUCACAGUAGAAGGUUCUAACAUGAGGAUCACCCAUGUAGGACUAUUCCUGAGAGAA [Parity 49 - Jieux - Same State NG 1] (Eterna round: R96, puzzle: Same State NG 1) | 10.2 | 9.32 | 15.7 |  |  | 
22 | GGAGAACAUGAGGAUCACCCAUGUGGAUGGGCGCUAGGAUAUGCGAGAGGGUGAAGAGAAGCAGAAGGAGUGGAUA [JR_SS1_Sub036] (puzzle: Same State 1) |  |  |  | 101 | 104 | 161
23 | CUCGUAUCGGGAGGAUAUGGUGCCUUGUUGGUGCUAGAAGGUCCAACAUGAGGAUCACCCAUGUGCGAGUGGUUGAGAGACCUC [SS NG10LRO14] (Eterna round: R96, puzzle: Same State NG 1) | 708 | 506 | 1000 |  |  | 
24 | UUAAUUUACUGAGGAUAUCGUGUCGUCUGAUUUGACAUGAGGAUCACCCAUGUGUGAAGUGGUAUCGAGAAGGCAGUUUUCUUA [JR_SSNG2_Sub027] (Eterna round: R96, puzzle: Same State NG 2) | 24.2 | 42.6 | 75.5 |  |  | 
25 | UUCUGAUAGCGAGGAUAUCGCGAGGAUCACCCGUGAGAAGGCGCAGAGCCGAGGAUCACCCGGCUGAUCCUGAGAAGGAGGUCA (Eterna round: R96, puzzle: Same State NG 1) | 136 | 333 | 530 |  |  | 
26 | GAGUGAUGGGUUAGUAACUGCUGGGAAGGACAUGAGGAUCACCCAUGUGAGUAGCGAGCUUGUGCUCGUCUUAUUAG [JR_SHM208A_Sub023] (puzzle: Sensor for hsa-mir-208a) |  |  |  | 207 | 114 | 379
27 | CCGGUUUAUGGAGGAUAUGGAGCCUUAUUGGCUCCAGAAGGCUAAUAACAUGAGGAUCACCCAUGUCCGGCGGUCAAUAGACCG [Eli NG1ss - 57] (Eterna round: R96, puzzle: Same State NG 1) | 21.7 | 69.8 | 90.5 |  |  | 
28 | AUUCGUUUGAUAGGAUAUCACCUUACAUGAGGAUCACCCAUGUUCACCACGCUGGUUUUUCAUACUGAGAAGGAUCUUGAUGAC [JR_SSNG2_Sub007] (Eterna round: R96, puzzle: Same State NG 2) | 50.5 | 45.6 | 51.4 |  |  | 
29 | GAGUAGUUGAAAGGAUAUUGAUUAUUGUAGGAUCAAGAAGGUUUUAACAUGAGGAUCACCCAUGUAGGACUAUAAAUGUGAAAA [Parity 94 - Jieux - Same State NG 1] (Eterna round: R96, puzzle: Same State NG 1) | 12.2 | 10.1 | 15.6 |  |  | 
30 | AGCUUGUAACAUGAGGAUCACCCAUGUACAAGCUUUUUGCUCGUUUUACCCGGGCCCGGCGAUUACACGGGCCCGGG [Optimized Design] (puzzle: Sensor for hsa-mir-208a version 2) |  |  |  | 10.1 | 9.89 | 9.67
